This note sets out measurements from publication PMC9898218 (Journal of materials chemistry. B, 2023).

This data set deals with the molecule itself. The experiment in a line: SEC.

B1: Cowpea chlorotic mottle virus (CCMV) coat protein (natural protein)
chain: MSTVGTGKLTRAQRRAAARKNKRNTRVVQPVIVEPIASGQGKAIKAWTGYSVSKWTASCAAAEAKVTSAITISLPNELSSERNKQLKVGRVLLWLGLLPSVSGTVKSCVTETQTTAAASFQVALAVADNSKDVVAAMYPEAFKGITLEQLTADLTIYLYSSAALTEGDVIVHLEVEHVRPTFDDSFTPVY
Turning to B1, the binding result is “binds”.
